Measurements taken from patent publication US20220144956A1 (Xencor, published 2022).

Molecular target: T1, human CD5 on human PBMCs / T cells (human, UniProt P06127 25-495)
T1 construct: whole, on cells
T1 sequence (looked up): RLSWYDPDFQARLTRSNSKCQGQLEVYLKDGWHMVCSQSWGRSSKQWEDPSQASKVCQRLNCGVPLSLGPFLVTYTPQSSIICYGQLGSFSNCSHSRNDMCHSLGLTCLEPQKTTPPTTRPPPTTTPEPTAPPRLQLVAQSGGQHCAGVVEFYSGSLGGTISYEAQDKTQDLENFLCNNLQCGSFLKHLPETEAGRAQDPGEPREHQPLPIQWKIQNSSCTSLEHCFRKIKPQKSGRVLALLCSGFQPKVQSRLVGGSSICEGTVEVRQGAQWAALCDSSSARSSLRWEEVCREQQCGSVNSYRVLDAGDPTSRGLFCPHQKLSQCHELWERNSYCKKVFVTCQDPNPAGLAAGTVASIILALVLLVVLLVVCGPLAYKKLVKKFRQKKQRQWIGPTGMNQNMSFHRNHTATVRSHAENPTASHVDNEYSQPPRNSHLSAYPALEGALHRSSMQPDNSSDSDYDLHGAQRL
Test: cell binding on unstimulated human PBMCs (FIG. 67)

B1: XENP35401 (antibody, human IgG1, kappa, V domains shown)
VH: EVQLVESGGGVVQPGRSLRLSCTFSGFSLSTSGMGVGWIRQAPGKGLEWVAHIWWDDDVYYNPSLKSRLTITKDASTDTVYMELSSLRSEDTAVYYCVRRRATGTGFDYWGQGTLVTVSS
VL: NIVMTQSPSSLSASVGDRVTITCQASQDVGTAVAWYQQKPDQSPKLLIYWTSTRHTGVPDRFTGSGSGTDFTLTISSLQPEDIATYFCHQYNSYNTFGSGTKLEIKR
notes: IgG1 backbone with E233P/L234V/L235A/G236del/S267K ablation variant; also called bivalent anti-CD5 mAb based on clone 5D7; 5D7; copies: 2 + 2
**Q.** Does B1 bind?
**A.** binds
